Assay [1] has as its target human FAPα-His tag (Sino biological) (human) (UniProt Q12884). Put plainly: competitive ELISA on coated human FAPα; biotinylated mAb alone, no competing Ab (row '0'). (An ELISA detects its analyte on a solid surface through an enzyme-linked reagent.)
The target is the same in assay [2]. Put plainly: competitive ELISA on coated human FAPα; competitor (detected): FAP-I37-Bio.
Assay [3] shares this target. Put plainly: competitive ELISA on coated human FAPα; competitor (detected): FAP-I38-Bio.
In assay [4] the target is mouse FAPα-His protein (mouse) (UniProt P97321). The assay can be described thus: ELISA, coated mouse FAPα-His.
Sequence of mouse FAPα-His protein (mouse) (P97321 26-761 limits assumed): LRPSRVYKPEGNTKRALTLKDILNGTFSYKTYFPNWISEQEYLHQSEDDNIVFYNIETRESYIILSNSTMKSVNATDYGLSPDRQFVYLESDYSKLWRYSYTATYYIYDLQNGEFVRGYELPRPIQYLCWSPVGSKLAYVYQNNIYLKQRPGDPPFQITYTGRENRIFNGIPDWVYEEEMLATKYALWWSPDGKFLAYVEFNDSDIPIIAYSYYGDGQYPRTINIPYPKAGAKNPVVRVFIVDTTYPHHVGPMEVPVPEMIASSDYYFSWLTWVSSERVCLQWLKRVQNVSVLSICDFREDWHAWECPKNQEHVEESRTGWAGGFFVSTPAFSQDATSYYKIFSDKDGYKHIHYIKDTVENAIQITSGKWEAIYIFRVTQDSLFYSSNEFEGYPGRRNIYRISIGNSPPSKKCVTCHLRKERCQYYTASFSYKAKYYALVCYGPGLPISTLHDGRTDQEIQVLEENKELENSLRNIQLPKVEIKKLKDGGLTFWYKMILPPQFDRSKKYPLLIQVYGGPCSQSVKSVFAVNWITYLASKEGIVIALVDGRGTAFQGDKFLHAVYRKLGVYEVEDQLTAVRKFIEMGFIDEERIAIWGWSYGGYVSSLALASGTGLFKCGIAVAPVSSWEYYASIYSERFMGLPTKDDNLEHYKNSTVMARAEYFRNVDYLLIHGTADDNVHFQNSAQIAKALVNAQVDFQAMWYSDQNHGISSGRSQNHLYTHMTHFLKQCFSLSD
Assay [5] concerns the target human FAPα-His tag (Sino biological) (human) (UniProt Q12884). The assay can be described thus: ELISA, coated human FAPα-His.
The target is the same in assay [6]. The assay can be described thus: competitive ELISA on coated human FAPα; competitor (detected): FAPα (BMK)-Bio.
For assay [7] the target is unchanged. Put plainly: competitive ELISA on coated human FAPα; competitor (detected): FAP-I30-Bio.
Assay [8] shares this target. The assay can be described thus: SPR (Biacore T200), mAb captured on Protein A chip, human FAPα-His as analyte.
For assay [9] the target is unchanged. The assay can be described thus: competitive ELISA on coated human FAPα; competitor (detected): FAP-G52-Bio.
For assay [10] the target is unchanged. The assay can be described thus: competitive ELISA on coated human FAPα; competitor (detected): FAP-G14-Bio.
In assay [11] the target is human FAPα on CHO-K1-hFAPα cells (human) (UniProt Q12884). The assay can be described thus: flow cytometry on CHO-K1-hFAPα cells (MFI of PE). On the set-up: unit not given beside the values.
Sequence of human FAPα on CHO-K1-hFAPα cells (human) (Q12884 whole entry): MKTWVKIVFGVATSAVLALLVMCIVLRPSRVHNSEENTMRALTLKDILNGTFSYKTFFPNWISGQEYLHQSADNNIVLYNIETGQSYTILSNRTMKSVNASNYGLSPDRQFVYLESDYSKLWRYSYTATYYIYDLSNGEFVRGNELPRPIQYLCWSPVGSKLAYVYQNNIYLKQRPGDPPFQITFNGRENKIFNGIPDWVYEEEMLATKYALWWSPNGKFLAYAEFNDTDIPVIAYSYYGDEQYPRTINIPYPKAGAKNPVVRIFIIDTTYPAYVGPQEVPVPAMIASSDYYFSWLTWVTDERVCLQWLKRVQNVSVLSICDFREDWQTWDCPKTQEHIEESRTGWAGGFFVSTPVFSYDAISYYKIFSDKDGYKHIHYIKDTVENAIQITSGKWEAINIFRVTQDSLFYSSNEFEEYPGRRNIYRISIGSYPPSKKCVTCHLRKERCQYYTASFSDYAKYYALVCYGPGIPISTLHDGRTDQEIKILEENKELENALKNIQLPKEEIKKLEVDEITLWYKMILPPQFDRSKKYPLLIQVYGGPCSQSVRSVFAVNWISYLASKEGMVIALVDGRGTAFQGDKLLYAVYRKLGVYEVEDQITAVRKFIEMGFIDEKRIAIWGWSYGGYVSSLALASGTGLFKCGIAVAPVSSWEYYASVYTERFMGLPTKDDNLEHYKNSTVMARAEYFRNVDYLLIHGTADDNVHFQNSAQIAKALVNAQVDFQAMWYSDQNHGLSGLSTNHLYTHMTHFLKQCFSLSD
Assay [12] deals with human FAPα-His tag (Sino biological) (human) (UniProt Q12884). Put plainly: competitive ELISA on coated human FAPα; competitor (detected): FAP-J40-Bio.
Sequence of human FAPα-His tag (Sino biological) (human) (Q12884 26-760 limits assumed): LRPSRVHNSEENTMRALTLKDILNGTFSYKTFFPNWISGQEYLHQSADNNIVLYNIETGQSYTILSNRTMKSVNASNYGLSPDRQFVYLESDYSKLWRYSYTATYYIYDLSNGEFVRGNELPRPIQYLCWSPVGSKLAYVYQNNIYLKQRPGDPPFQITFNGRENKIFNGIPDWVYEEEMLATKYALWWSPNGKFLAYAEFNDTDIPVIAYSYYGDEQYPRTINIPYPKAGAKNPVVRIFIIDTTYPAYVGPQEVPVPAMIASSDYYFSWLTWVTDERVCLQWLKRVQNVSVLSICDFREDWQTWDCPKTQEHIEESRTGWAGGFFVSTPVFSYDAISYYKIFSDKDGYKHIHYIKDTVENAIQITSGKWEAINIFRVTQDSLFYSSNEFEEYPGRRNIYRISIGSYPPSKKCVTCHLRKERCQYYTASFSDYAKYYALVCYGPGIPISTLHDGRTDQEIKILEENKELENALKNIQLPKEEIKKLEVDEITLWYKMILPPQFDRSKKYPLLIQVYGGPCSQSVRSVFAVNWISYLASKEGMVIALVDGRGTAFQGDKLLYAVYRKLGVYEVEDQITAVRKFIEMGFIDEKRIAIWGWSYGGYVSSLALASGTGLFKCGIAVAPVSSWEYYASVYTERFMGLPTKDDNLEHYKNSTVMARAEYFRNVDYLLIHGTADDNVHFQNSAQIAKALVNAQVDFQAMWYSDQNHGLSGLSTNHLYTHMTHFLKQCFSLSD
Assay [13] has as its target human FAPα on CHO-K1-hFAPα cells (human) (UniProt Q12884). The assay can be described thus: flow cytometry on CHO-K1-hFAPα cells. For orientation: Flow cytometry measures light scatter and fluorescence of single cells or particles in a stream.

Take “FAP-4B9 clone from Roche (FAPα-BMK) (antibody)”: the OD 450 nm in assay [1] came to 1.26 OD 450 nm; in assay [2], 0.23 OD 450 nm; in assay [3] it was 0.265 OD 450 nm; in assay [6], 0.171 OD 450 nm; in assay [7], 0.155 OD 450 nm; in [9], 0.169 OD 450 nm. The values for the OD 450 nm in assay [10] and in assay [12] were 0.135 OD 450 nm and 0.179 OD 450 nm, respectively. Besides, the EC50 in [4] turned out to be 10.3 ng/mL; in [5], 5.55 ng/mL; in [13] it was 0.043 ng/mL. Also, in [8], the Kd is 6.94 nM. The substance further had a koff in assay [8] of 0.000208 s⁻¹. The substance also yielded a kon in [8] of 30000 M⁻¹ s⁻¹. Besides, in assay [11], the Cmax was determined as 424.

As a reminder, the EC50 is the concentration needed to bring the measured effect to its halfway point. One may read the Kd as the equilibrium constant for the complex coming apart. One may read the koff as the rate constant with which the complex falls apart. Broadly, the kon is the second-order rate constant of association.

Values taken from patent publication US20250297032A1.
